Experimental data published in patent US11229713B2, “Methods and compositions for 18F-radiolabeling of biologics” (BRISTOL-MYERS SQUIBB COMPANY, priority 2014, dated 2022).

Target: PD-L1 (Homo sapiens, UniProt Q9NZQ7)
Test: In vitro autoradiography blocking study in human lung tumor and xenograft tissue sections
Design: PD-L1-positive L2987 human lung carcinoma cells or PD-L1-negative HT-29 human colorectal adenocarcinoma cells; endogenous in cells; host or cells: L2987 human lung carcinoma cells (HT-29 as PD-L1-negative control)
Conditions: A02 0.025-25 nM, non-PD-L1 binding adnectin 25 nM, 1 hour room temperature
Description: Human lung tumor tissues were embedded in OCT and chilled in 2-methylbutane for 2-5 minutes until frozen. The samples were stored in −80° C. degree freezer until use. Human xenograft tissues were also included in the assay. Mice bearing bilateral xenografts were produced by introducing 4×10^6 PD-L1(+) L2987 cells and 1.5×10^6 PD-L1(−) HT-29 t cells subcutaneously into opposite flanks of nu/nu mice. Once resulting xenograft tumors reached appropriate size (approx. 200-300 mm^3) mice were anesthetized with 2% isoflurane and sacrificed via cervical dislocation. Fresh tumor tissues were excised, immersed into OCT and chilled in 2-methylbutane for 2-5 minutes until frozen. The tissues were then wrapped in foil/ZIPLOC® bag and stored at −80° C. until use. For all tissues (human lung tumor and xenografts) sections of 5 μm thickness (collected as 2 sections/slide) were cut using a cryostat, thaw-mounted on glass microscope slides, and allowed to air dry for approximately 30 minutes.
Blocking studies with cold (unlabeled) A02 adnectin at 0.025 nM, 0.25 nM, 2.5 nM and 25 nM respectively and 25 nM non-PD-L1 binding adnectin were conducted using the following conditions. […] Autoradiography signal from tissue-associated radioactivity was quantified from these ROIs.

PD-L1, sequence (Q9NZQ7 19-290): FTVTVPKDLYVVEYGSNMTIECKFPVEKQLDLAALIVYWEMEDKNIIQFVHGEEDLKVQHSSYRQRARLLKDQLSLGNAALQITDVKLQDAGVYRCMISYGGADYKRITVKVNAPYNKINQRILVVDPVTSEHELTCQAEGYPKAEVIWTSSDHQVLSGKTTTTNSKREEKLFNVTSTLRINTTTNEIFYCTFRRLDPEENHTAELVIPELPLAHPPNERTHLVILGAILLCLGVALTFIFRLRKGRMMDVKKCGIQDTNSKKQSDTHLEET

displacement / blockade of 0.25 nM ^18F-A02 adnectin radioligand compared to total binding: dose dependent displacement
B1: A02 adnectin: anti-PD-L1 Adnectin, SEQ ID NO: 2, cold (unlabeled) (protein)
chain: EVVAATPTSLLISWSYDGPIDRYYRITYGETGGNSPVQEFTVPPDQKTATISGLKPGVDYTITVYAVRLEEAHYNREFPISINYRTPC
modifications: Synthetic 18F-radiolabeled PD-L1 Adnectin, A02
